# Measured values: article PMC5336313
# B1: human PEBP4 (hPEBP4): T171A (protein)
# parent chain: MGWTMRLVTAALLLGLMMVVTGDEDENSPCAHEALLDEDTLFCQGLEVFYPELGNIGCKVVPDCNNYRQKITSWMEPIVKFPGAVDGATYILVMVDPDAPSRAEPRQRFWRHWLVTDIKGADLKKGKIQGQELSAYQAPSPPAHSGFHRYQFFVYLQEGKVISLLPKENKTRGSWKMDRFLNRFHLGEPEASTQFMTQNYQDSPTLQAPRERASEPKHKNQAEIAAC
# Assay: anti-Myc western blot of cell extracts and culture media
# Details: glycan lost; control: wild-type C-terminally tagged full-length PEBP4
protein,measurement,value
B1,expression_or_secretion,no change
